Test [1] addresses T1, human tissue factor pathway inhibitor (TFPI) (human, UniProt P10646 29-304, limits assumed).
T1 construct: bought; also called hTFPI; human TFPI
T1 sequence (looked up): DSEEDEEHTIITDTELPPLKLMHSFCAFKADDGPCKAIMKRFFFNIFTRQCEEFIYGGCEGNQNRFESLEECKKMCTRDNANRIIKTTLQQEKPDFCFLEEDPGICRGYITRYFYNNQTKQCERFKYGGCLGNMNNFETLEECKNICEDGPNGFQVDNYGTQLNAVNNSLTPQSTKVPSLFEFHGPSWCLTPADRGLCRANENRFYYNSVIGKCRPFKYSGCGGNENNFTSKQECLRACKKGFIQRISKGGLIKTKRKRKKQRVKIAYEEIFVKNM
As to the kind of experiment: competitive ELISA.

Test [2] addresses T2, mouse tissue factor pathway inhibitor (TFPI) (mouse, UniProt O54819 29-289, limits assumed).
T2 construct: bought; also called mTFPI; murine TFPI
T2 sequence (looked up): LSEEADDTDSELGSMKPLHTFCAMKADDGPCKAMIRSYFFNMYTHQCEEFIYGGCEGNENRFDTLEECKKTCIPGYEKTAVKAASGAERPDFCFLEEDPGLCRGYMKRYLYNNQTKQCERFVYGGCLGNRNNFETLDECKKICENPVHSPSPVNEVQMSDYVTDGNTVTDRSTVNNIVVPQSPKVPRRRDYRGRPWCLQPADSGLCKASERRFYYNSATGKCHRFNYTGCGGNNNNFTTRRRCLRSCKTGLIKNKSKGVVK
Nature of the test: competitive ELISA.

B1: 4B7 HC D62Q+H107M+Y112D/LC D33F+N35I (Fab, V domains shown)
VH: QVQLQQSGPGLVKPSQTLSLTCAISGDSVSSNSAAWSWIRQSPGRGLEWLGIIYKRSKWYNQYAVSVKSRITINPDTSKNQFSLQLNSVTPEDTAVYYCARWHSDKMWGFDDWGQGTLVTVSS
VL: DIVMTQSPLSLPVTPGEPASISCRSSQSLVFSFGITYLNWYLQKPGQSPQLLIYKGSNRASGVPDRFSGSGSGTDFTLKISRVEAEDVGVYYCQQYDSYPLTFGQGTKVEIKR
Take B1: the values for the variant/HC_D62R in test [1] and in test [2] were 22.7 ratio and 31.7 ratio, respectively.

B2: 4B7 HC D62R+H107M+Y112D/LC F31M+D33F (Fab, V domains shown)
VH: QVQLQQSGPGLVKPSQTLSLTCAISGDSVSSNSAAWSWIRQSPGRGLEWLGIIYKRSKWYNRYAVSVKSRITINPDTSKNQFSLQLNSVTPEDTAVYYCARWHSDKMWGFDDWGQGTLVTVSS
VL: DIVMTQSPLSLPVTPGEPASISCRSSQSLVMSFGNTYLNWYLQKPGQSPQLLIYKGSNRASGVPDRFSGSGSGTDFTLKISRVEAEDVGVYYCQQYDSYPLTFGQGTKVEIKR
Consider B2, for which the variant/HC_D62R in test [1] turned out to be 24.2 ratio; in test [2], 31.3 ratio.

B3: 4B7 HC D62Q+Y112D/LC S32R+D33F+N35I (Fab, V domains shown)
VH: QVQLQQSGPGLVKPSQTLSLTCAISGDSVSSNSAAWSWIRQSPGRGLEWLGIIYKRSKWYNQYAVSVKSRITINPDTSKNQFSLQLNSVTPEDTAVYYCARWHSDKHWGFDDWGQGTLVTVSS
VL: DIVMTQSPLSLPVTPGEPASISCRSSQSLVFRFGITYLNWYLQKPGQSPQLLIYKGSNRASGVPDRFSGSGSGTDFTLKISRVEAEDVGVYYCQQYDSYPLTFGQGTKVEIKR
Turning to B3, the variant/HC_D62R is 23.6 ratio in test [1] and 38.1 ratio in test [2].

B4: 4B7 HC D62R+H107M+Y112D/LC F31I+S32R+D33F+N35I+D97T (Fab, V domains shown)
VH: QVQLQQSGPGLVKPSQTLSLTCAISGDSVSSNSAAWSWIRQSPGRGLEWLGIIYKRSKWYNRYAVSVKSRITINPDTSKNQFSLQLNSVTPEDTAVYYCARWHSDKMWGFDDWGQGTLVTVSS
VL: DIVMTQSPLSLPVTPGEPASISCRSSQSLVIRFGITYLNWYLQKPGQSPQLLIYKGSNRASGVPDRFSGSGSGTDFTLKISRVEAEDVGVYYCQQYTSYPLTFGQGTKVEIKR
As to B4, the variant/HC_D62R was 20.4 ratio in test [1] and 18.2 ratio in test [2].

B5: 4B7 HC D62R+H107M+Y112D/LC F31I+D33R+N35I (Fab, V domains shown)
VH: QVQLQQSGPGLVKPSQTLSLTCAISGDSVSSNSAAWSWIRQSPGRGLEWLGIIYKRSKWYNRYAVSVKSRITINPDTSKNQFSLQLNSVTPEDTAVYYCARWHSDKMWGFDDWGQGTLVTVSS
VL: DIVMTQSPLSLPVTPGEPASISCRSSQSLVISRGITYLNWYLQKPGQSPQLLIYKGSNRASGVPDRFSGSGSGTDFTLKISRVEAEDVGVYYCQQYDSYPLTFGQGTKVEIKR
Regarding B5, the variant/HC_D62R in test [1] worked out at 22 ratio; in test [2], 35.4 ratio.

B6: 4B7 HC D62R+H107M+Y112D/LC S32R+D33F+N35I (Fab, V domains shown)
VH: QVQLQQSGPGLVKPSQTLSLTCAISGDSVSSNSAAWSWIRQSPGRGLEWLGIIYKRSKWYNRYAVSVKSRITINPDTSKNQFSLQLNSVTPEDTAVYYCARWHSDKMWGFDDWGQGTLVTVSS
VL: DIVMTQSPLSLPVTPGEPASISCRSSQSLVFRFGITYLNWYLQKPGQSPQLLIYKGSNRASGVPDRFSGSGSGTDFTLKISRVEAEDVGVYYCQQYDSYPLTFGQGTKVEIKR
B6: the values for the variant/HC_D62R in test [1] and in test [2] were 24.1 ratio and 50.3 ratio, respectively.

B7: 4B7 HC N32D+D62Q+H107M+Y112D/LC F31I+S32R+D33R+N35I+D97T (Fab, V domains shown)
VH: QVQLQQSGPGLVKPSQTLSLTCAISGDSVSSDSAAWSWIRQSPGRGLEWLGIIYKRSKWYNQYAVSVKSRITINPDTSKNQFSLQLNSVTPEDTAVYYCARWHSDKMWGFDDWGQGTLVTVSS
VL: DIVMTQSPLSLPVTPGEPASISCRSSQSLVIRRGITYLNWYLQKPGQSPQLLIYKGSNRASGVPDRFSGSGSGTDFTLKISRVEAEDVGVYYCQQYTSYPLTFGQGTKVEIKR
For the molecule B7, the variant/HC_D62R was found to be 20.2 ratio in test [1] and 11.5 ratio in test [2].

B8: 4B7 HC D62R+H107M+Y112D/LC D33F+N35I (Fab, V domains shown)
VH: QVQLQQSGPGLVKPSQTLSLTCAISGDSVSSNSAAWSWIRQSPGRGLEWLGIIYKRSKWYNRYAVSVKSRITINPDTSKNQFSLQLNSVTPEDTAVYYCARWHSDKMWGFDDWGQGTLVTVSS
VL: DIVMTQSPLSLPVTPGEPASISCRSSQSLVFSFGITYLNWYLQKPGQSPQLLIYKGSNRASGVPDRFSGSGSGTDFTLKISRVEAEDVGVYYCQQYDSYPLTFGQGTKVEIKR
With B8, the variant/HC_D62R in test [1] was 20 ratio; in test [2], 36.6 ratio.

B9: 4B7 HC N32D+D62Q+H107M+Y112D/LC F31M+S32R+D33F+N35I+D97T (Fab, V domains shown)
VH: QVQLQQSGPGLVKPSQTLSLTCAISGDSVSSDSAAWSWIRQSPGRGLEWLGIIYKRSKWYNQYAVSVKSRITINPDTSKNQFSLQLNSVTPEDTAVYYCARWHSDKMWGFDDWGQGTLVTVSS
VL: DIVMTQSPLSLPVTPGEPASISCRSSQSLVMRFGITYLNWYLQKPGQSPQLLIYKGSNRASGVPDRFSGSGSGTDFTLKISRVEAEDVGVYYCQQYTSYPLTFGQGTKVEIKR
On to B9, for which the variant/HC_D62R in test [1] is 19 ratio; in test [2], 12 ratio.

B10: 4B7 HC N32D+D62Q+H107M+Y112D/LC N35I (Fab, V domains shown)
VH: QVQLQQSGPGLVKPSQTLSLTCAISGDSVSSDSAAWSWIRQSPGRGLEWLGIIYKRSKWYNQYAVSVKSRITINPDTSKNQFSLQLNSVTPEDTAVYYCARWHSDKMWGFDDWGQGTLVTVSS
VL: DIVMTQSPLSLPVTPGEPASISCRSSQSLVFSDGITYLNWYLQKPGQSPQLLIYKGSNRASGVPDRFSGSGSGTDFTLKISRVEAEDVGVYYCQQYDSYPLTFGQGTKVEIKR
For the molecule B10, the variant/HC_D62R in test [1] is 22.2 ratio; in test [2] it was 16.4 ratio.

B11: 4B7 HC D62R+H107M+Y112D/LC N35T+D97T (Fab, V domains shown)
VH: QVQLQQSGPGLVKPSQTLSLTCAISGDSVSSNSAAWSWIRQSPGRGLEWLGIIYKRSKWYNRYAVSVKSRITINPDTSKNQFSLQLNSVTPEDTAVYYCARWHSDKMWGFDDWGQGTLVTVSS
VL: DIVMTQSPLSLPVTPGEPASISCRSSQSLVFSDGTTYLNWYLQKPGQSPQLLIYKGSNRASGVPDRFSGSGSGTDFTLKISRVEAEDVGVYYCQQYTSYPLTFGQGTKVEIKR
For B11, the variant/HC_D62R in test [1] was found to be 20.1 ratio; in test [2], 19.4 ratio.

B12: 4B7 HC D62S+H107M+Y112D/LC S32R+D33F+N35I (Fab, V domains shown)
VH: QVQLQQSGPGLVKPSQTLSLTCAISGDSVSSNSAAWSWIRQSPGRGLEWLGIIYKRSKWYNSYAVSVKSRITINPDTSKNQFSLQLNSVTPEDTAVYYCARWHSDKMWGFDDWGQGTLVTVSS
VL: DIVMTQSPLSLPVTPGEPASISCRSSQSLVFRFGITYLNWYLQKPGQSPQLLIYKGSNRASGVPDRFSGSGSGTDFTLKISRVEAEDVGVYYCQQYDSYPLTFGQGTKVEIKR
Take B12: the variant/HC_D62R in test [1] turned out to be 18.2 ratio; in test [2] it was 31.7 ratio.

B13: 4B7 HC N32D+D62Q+H107M+Y112D/LC F31M+D33F+N35T+Y37F (Fab, V domains shown)
VH: QVQLQQSGPGLVKPSQTLSLTCAISGDSVSSDSAAWSWIRQSPGRGLEWLGIIYKRSKWYNQYAVSVKSRITINPDTSKNQFSLQLNSVTPEDTAVYYCARWHSDKMWGFDDWGQGTLVTVSS
VL: DIVMTQSPLSLPVTPGEPASISCRSSQSLVMSFGTTFLNWYLQKPGQSPQLLIYKGSNRASGVPDRFSGSGSGTDFTLKISRVEAEDVGVYYCQQYDSYPLTFGQGTKVEIKR
For the molecule B13, the variant/HC_D62R in test [1] turned out to be 19.4 ratio; in test [2], 35.3 ratio.

B14: 4B7 HC D62R+H107M+Y112D/LC F31M+D33F+N35I (Fab, V domains shown)
VH: QVQLQQSGPGLVKPSQTLSLTCAISGDSVSSNSAAWSWIRQSPGRGLEWLGIIYKRSKWYNRYAVSVKSRITINPDTSKNQFSLQLNSVTPEDTAVYYCARWHSDKMWGFDDWGQGTLVTVSS
VL: DIVMTQSPLSLPVTPGEPASISCRSSQSLVMSFGITYLNWYLQKPGQSPQLLIYKGSNRASGVPDRFSGSGSGTDFTLKISRVEAEDVGVYYCQQYDSYPLTFGQGTKVEIKR
Turning to B14, the variant/HC_D62R in test [1] is 30.9 ratio; in test [2], 47 ratio.

B15: 4B7 HC D62R+Y112D/LC S32R+D33F+N35I (Fab, V domains shown)
VH: QVQLQQSGPGLVKPSQTLSLTCAISGDSVSSNSAAWSWIRQSPGRGLEWLGIIYKRSKWYNRYAVSVKSRITINPDTSKNQFSLQLNSVTPEDTAVYYCARWHSDKHWGFDDWGQGTLVTVSS
VL: DIVMTQSPLSLPVTPGEPASISCRSSQSLVFRFGITYLNWYLQKPGQSPQLLIYKGSNRASGVPDRFSGSGSGTDFTLKISRVEAEDVGVYYCQQYDSYPLTFGQGTKVEIKR
Turning to B15, the variant/HC_D62R in test [1] stood at 21.9 ratio; in test [2] it was 39.9 ratio.

B16: 4B7 HC N32D+D62Q+H107M+Y112D/LC D33R+N35T (Fab, V domains shown)
VH: QVQLQQSGPGLVKPSQTLSLTCAISGDSVSSDSAAWSWIRQSPGRGLEWLGIIYKRSKWYNQYAVSVKSRITINPDTSKNQFSLQLNSVTPEDTAVYYCARWHSDKMWGFDDWGQGTLVTVSS
VL: DIVMTQSPLSLPVTPGEPASISCRSSQSLVFSRGTTYLNWYLQKPGQSPQLLIYKGSNRASGVPDRFSGSGSGTDFTLKISRVEAEDVGVYYCQQYDSYPLTFGQGTKVEIKR
Take B16: the values for the variant/HC_D62R in test [1] and in test [2] were 23.7 ratio and 18.8 ratio, respectively.

B17: 4B7 HC N32D+D62K+Y112D/LC S32R+D33F+N35I+D97T (Fab, V domains shown)
VH: QVQLQQSGPGLVKPSQTLSLTCAISGDSVSSDSAAWSWIRQSPGRGLEWLGIIYKRSKWYNKYAVSVKSRITINPDTSKNQFSLQLNSVTPEDTAVYYCARWHSDKHWGFDDWGQGTLVTVSS
VL: DIVMTQSPLSLPVTPGEPASISCRSSQSLVFRFGITYLNWYLQKPGQSPQLLIYKGSNRASGVPDRFSGSGSGTDFTLKISRVEAEDVGVYYCQQYTSYPLTFGQGTKVEIKR
For B17, the values for the variant/HC_D62R in test [1] and in test [2] were 22.7 ratio and 38.8 ratio, respectively.

Source of the values: USRE47150 (Bayer, dated 2018).
